B1: TRAF2 (other, human, UniProt Q12933 2-501, looked up)
chain: AAASVTPPGSLELLQPGFSKTLLGTKLEAKYLCSACRNVLRRPFQAQCGHRYCSFCLASILSSGPQNCAACVHEGIYEEGISILESSSAFPDNAARREVESLPAVCPSDGCTWKGTLKEYESCHEGRCPLMLTECPACKGLVRLGEKERHLEHECPERSLSCRHCRAPCCGADVKAHHEVCPKFPLTCDGCGKKKIPREKFQDHVKTCGKCRVPCRFHAIGCLETVEGEKQQEHEVQWLREHLAMLLSSVLEAKPLLGDQSHAGSELLQRCESLEKKTATFENIVCVLNREVERVAMTAEACSRQHRLDQDKIEALSSKVQQLERSIGLKDLAMADLEQKVLEMEASTYDGVFIWKISDFARKRQEAVAGRIPAIFSPAFYTSRYGYKMCLRIYLNGDGTGRGTHLSLFFVVMKGPNDALLRWPFNQKVTLMLLDQNNREHVIDAFRPDVTSSSFQRPVNDMNIASGCPLFCPVSKMEAKNSYVRDDAIFIKAIVDLTGL
notes: also called 内源TRAF2
B2: HA-TRAF2 (other, human, UniProt Q12933 1-501, looked up)
chain: MAAASVTPPGSLELLQPGFSKTLLGTKLEAKYLCSACRNVLRRPFQAQCGHRYCSFCLASILSSGPQNCAACVHEGIYEEGISILESSSAFPDNAARREVESLPAVCPSDGCTWKGTLKEYESCHEGRCPLMLTECPACKGLVRLGEKERHLEHECPERSLSCRHCRAPCCGADVKAHHEVCPKFPLTCDGCGKKKIPREKFQDHVKTCGKCRVPCRFHAIGCLETVEGEKQQEHEVQWLREHLAMLLSSVLEAKPLLGDQSHAGSELLQRCESLEKKTATFENIVCVLNREVERVAMTAEACSRQHRLDQDKIEALSSKVQQLERSIGLKDLAMADLEQKVLEMEASTYDGVFIWKISDFARKRQEAVAGRIPAIFSPAFYTSRYGYKMCLRIYLNGDGTGRGTHLSLFFVVMKGPNDALLRWPFNQKVTLMLLDQNNREHVIDAFRPDVTSSSFQRPVNDMNIASGCPLFCPVSKMEAKNSYVRDDAIFIKAIVDLTGL
notes: also called 外源HA-TRAF2; not shown: HA tag
B3: SHP-1 (enzyme)
chain: not shown
notes: also called 内源性SHP-1; 外源SHP-1
B4: B3ICDhFc (LILRB3胞内结构域, C末端与hFc融合) (Fc fusion, human, UniProt O75022 465-631, looked up)
chain: RRQRHSKHRTSDQRKTDFQRPAGAAETEPKDRGLLRRSSPAADVQEENLYAAVKDTQSEDRVELDSQSPHDEDPQAVTYAPVKHSSPRREMASPPSSLSGEFLDTKDRQVEEDRQMDTEAAASEASQDVTYAQLHSLTLRRKATEPPPSQEGEPPAEPSIYATLAIH
notes: domain: 胞内结构域; Purified for the in vitro pull-down with GST-TRAF2; not shown: human Fc (hFc) fused at the C-terminus

Tests used:
[1] = target: T1, LILRB3 (白细胞免疫球蛋白样受体亚家族B成员3), full length (human, UniProt O75022 24-631); test: co-IP from primary M5 AML cells with human anti-LILRB3 antibody
T1 construct: whole, on cells; also called B3-FL; 全长LILRB3

[2] = target: T2, LILRB3-hFc (全长LILRB3, C末端hFc标签) (human, UniProt O75022 24-631); test: co-IP of endogenous TRAF2 with LILRB3-hFc in THP-1 cells, with LPS or PBS
T2 construct: whole, on cells; also called hFc加标签的B3-FL; not shown: human Fc (hFc) fused at the C-terminus in the pFLAG-CMV5.1 vector

氨基酸505-515缺失的LILRB3 = 氨基酸505-515缺失的LILRB3 (human, UniProt O75022 24-631); test: co-IP in 293T cells
LILRB3 QEE509-511AAA突变体 = target: T3, LILRB3 QEE509-511AAA突变体 (human, UniProt O75022 24-631); test: co-IP in 293T cells
T3 construct: It is probably hFc-fused like the other LILRB3 constructs; also called B3AAA

[3] = target: T2, LILRB3-hFc (全长LILRB3, C末端hFc标签); test: co-IP of HA-TRAF2 with hFc-fused LILRBs in 293T cells
[4] = target: T2, LILRB3-hFc (全长LILRB3, C末端hFc标签); test: co-IP in THP-1 cells stably expressing LILRB3-hFc
FLAG-cFLIP = FLAG-cFLIP (human, UniProt O15519 1-480); test: co-IP in 293T cells
HA-TRAF2 = target: B2; test: co-IP in 293T cells with or without FLAG-A20N (Fig 6j)

Sequence of FLAG-cFLIP (O15519 whole entry): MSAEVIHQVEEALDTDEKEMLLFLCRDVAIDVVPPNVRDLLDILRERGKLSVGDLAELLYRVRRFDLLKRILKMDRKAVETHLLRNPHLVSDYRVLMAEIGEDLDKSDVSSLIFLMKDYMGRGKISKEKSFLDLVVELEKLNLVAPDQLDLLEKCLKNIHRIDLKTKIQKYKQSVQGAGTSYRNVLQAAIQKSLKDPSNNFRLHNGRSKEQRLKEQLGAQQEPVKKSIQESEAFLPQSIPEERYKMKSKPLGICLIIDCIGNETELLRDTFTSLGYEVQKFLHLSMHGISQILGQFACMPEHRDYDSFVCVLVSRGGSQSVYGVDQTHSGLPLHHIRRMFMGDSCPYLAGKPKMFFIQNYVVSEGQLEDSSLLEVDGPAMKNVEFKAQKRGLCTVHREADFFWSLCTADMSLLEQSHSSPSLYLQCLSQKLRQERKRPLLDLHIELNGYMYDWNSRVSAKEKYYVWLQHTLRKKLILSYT

B1
binding result [1]: binds
binding result [2]: binds

B2
binding result (氨基酸505-515缺失的LILRB3): no binding
binding result (LILRB3 QEE509-511AAA突变体): no binding
binding result [3]: binds

B3
binding result [4]: binds

B4
binding result (FLAG-cFLIP): no binding
binding result (HA-TRAF2): binds

Source: patent CN116963747A (UNIV TEXAS, dated 2023)
